Measured values: patent publication US20110110861A1 (WALTER AND ELIZA HALL INSTITUTE OF MEDICAL RESEARCH, published 2011)

T1: mouse 5B6, full length, membrane bound on cells (mouse)
T1 construct: also called m5B6; mClec9A
T1 chain: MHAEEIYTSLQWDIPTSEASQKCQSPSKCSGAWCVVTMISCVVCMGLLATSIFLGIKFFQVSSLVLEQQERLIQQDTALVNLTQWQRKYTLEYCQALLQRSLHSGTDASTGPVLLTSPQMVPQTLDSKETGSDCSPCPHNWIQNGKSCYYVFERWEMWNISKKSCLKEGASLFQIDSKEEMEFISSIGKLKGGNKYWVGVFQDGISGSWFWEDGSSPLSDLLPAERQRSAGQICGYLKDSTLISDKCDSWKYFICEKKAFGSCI


Key:
[1] = molecular target: T2, human 5B6, full length, membrane bound on cells (human, UniProt Q6UXN8 1-241); test: flow cytometry on live 293T cells transiently transfected with full length untagged h5B6
T2 construct: also called h5B6; hCLEC9A
T2 sequence (Q6UXN8 whole entry): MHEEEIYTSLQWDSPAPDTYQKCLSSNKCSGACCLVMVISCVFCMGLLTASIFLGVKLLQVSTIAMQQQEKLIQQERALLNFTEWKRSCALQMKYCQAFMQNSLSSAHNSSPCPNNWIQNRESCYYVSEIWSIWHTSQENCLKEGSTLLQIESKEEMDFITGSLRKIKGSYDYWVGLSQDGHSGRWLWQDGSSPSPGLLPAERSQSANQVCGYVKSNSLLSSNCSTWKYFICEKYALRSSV
Description: (§1) To identify binding partners for the 5B6 molecule, the inventors generated the soluble FLAG-tagged m5B6 and h5B6, and a control soluble FLAG-tagged C-type lectin Cire. […] Thus, soluble 5B6 can interact with membrane bound 5B6 in a cross-species manner.
(§2) Binding assays were performed in binding buffer (PBS containing 0.2% BSA/and 0.02% sodium azide), on ice. Cells were washed 3 times with PBS to remove serum proteins, then resuspended in binding buffer. Cells were incubated with either (1) biotinylated soluble Clec9A and controls, and detected with SA-PE, or (2) soluble FLAG-tagged Clec9A, biotinylated anti-FLAG mAb 9H10, then detected with SA-PE. Live cells were gated on forward and side scatter, or by propidium iodide (PI) exclusion, whereas dead cells were gated on forward and side scatter, or by PI inclusion. Analysis of soluble Clec9A binding was performed by flow cytometry using a FACScan (Becton Dickinson).

[2] = molecular target: T1, mouse 5B6, full length, membrane bound …; test: flow cytometry on live 293T cells transiently transfected with full length untagged m5B6
Description: as §1, §2

binding result [1]	binding result [2]	Binder
binds	binds	soluble FLAG-tagged human 5B6 (full ectodomain: stalk/hinge and CTLD) (receptor, Built like m1; also called soluble h5B6; soluble human 5B6) not shown
binds	binds	soluble FLAG-tagged mouse 5B6 (full ectodomain: stalk/hinge and CTLD) (receptor, also called soluble m5B6; soluble mouse 5B6) ASISARQNSGLHHILDAQKMVWNHRGARQDYKDDDDKTREQQERLIQQDTALVNLTQWQRKYTLEYCQALLQRSLHSGTDASTGPVLLTSPQMVPQTLDSKETGSDCSPCPHNWIQNGKSCYYVFERWEMWNISKKSCLKEGASLFQIDSKEEMEFISSIGKLKGGNKYWVGVFQDGISGSWFWEDGSSPLSDLLPAERQRSAGQICGYLKDSTLISDKCDSWKYFICEKKAFGSCI
